Reference: patent publication US20200147161A1 (University of Texas, published 2020)
Blank lines part the entries; values can stand above or below the binder they belong to.

What was measured:
HLA-A2 on T2 cells [1] = molecular target: T1, HLA-A2 on T2 cells (human); assay: HLA-A2 stabilisation on T2 cells, 18 hours, flow cytometry, FI index
T1 construct: The text of the assay says only 'HLA-A2'; also called HLA-A2 allele
Method: The peptides were synthesized and pulsed with T2 cells with a series of diluted concentrations for 18 hours. After incubation, the HLA-A2 expression level of T2 was detected by flow cytometry and the FI index was calculated. The M27 peptide was used as a weak binding peptide control and the M26 peptide was used as a strong binding peptide control.

[2] = molecular target: T2, VCX/Y family (VCX1, VCX2, VCX3A, VCX3B, VCY); VCX54 peptide peptide on HLA-A*02:01 (human); assay: multimer staining
T2 peptide: GAATKMAAV

[3] = molecular target: T3, VCY; VCY-37 peptide peptide on HLA-A*02:01 (human); assay: multimer staining
T3 peptide: KVAEKGEAV

HLA-A2 on T2 cells [4] = molecular target: T1, HLA-A2 on T2 cells; assay: HLA-A2 stabilisation on T2 cells, 18 hr, flow cytometry, fluorescence index
Method: The predicted peptides were synthesized and co-cultured with T2 cells with a series of diluted concentrations. DMSO without peptide or with the same concentration of negative binding to HLA-A2 peptide were used as control. After 18 hr incubation, the HLA-A2 expression was detected by flow cytometer. The fluorescence index (FI) was calculated as follows: FI=(mean fluorescence with the given peptide−mean fluorescence without peptide)/(mean fluorescence without peptide). […] The VCX54 epitope is found in all members of the VCX/Y family including VCX1, VCX2, VCX3A, VCX3B, or VCY which are expressed in various lung cancer cells (FIG. 1B).

B2: VCY-37 CTL TCR (TCR, V domains shown)
Valpha: AQKVTQAQTEISVVEKEDVTLDCVYETRDTTYYLFWYKQPPSGELVFLIRRNSFDEQNEISGRYSWNFQKSTSSFNFTITASQVVDSAVYFCALSLLSYNTDKLIFGTGTRLQVFP
Vbeta: DTGVSQDPRHKITKRGQNVTFRCDPISEHNRLYWYRQTLGQGPEFLTYFQNEAQLEKSRLLSDRFSAERPKGSFSTLEIQRTEQGDSAMYLCASSTPGPSGANVLTFGAGSRLTVL
- binding result [3]: recognises

Binder: KMAAVEAPEA (Synthetic 10-mer) [VCX-58 peptide (KMAAVEAPEA)]
- binding result (HLA-A2 on T2 cells [1]): binds

Next, values leading:

- binding result (HLA-A2 on T2 cells [1]): binds
Binder: KVAEKGEAV (Synthetic 9-mer from VCY) [VCY-37 peptide (KVAEKGEAV)]

- binding result [2]: recognises
B1: VCX54 CTL Clone-7 TCR (TCR, V domains shown)
Valpha: AQKITQTQPGMFVQEKEAVTLDCTYDTSDPSYGLFWYKQPSSGEMIFLIYQGSYDQQNATEGRYSLNFQKARKSANLVISASQLGDSAMYFCAMITSGNTGKLIFGQGTTLQVKP
Vbeta: AAGVIQSPRHLIKEKRETATLKCYPIPRHDTVYWYQQGPGQDPQFLISFYEKMQSDKGSIPDRFSAQQFSDYHSELNMSSLELGDSALYFCASSPPGGGRTEAFFGQGTRLTVV

- binding result (HLA-A2 on T2 cells [4]): binds
B3: VCX54 peptide (GAATKMAAV) (peptide)
peptide: GAATKMAAV
notes: Synthetic 9-mer shared by all VCX/Y family members; added to T2 cells in the HLA-A2 stabilisation assay; also called GAATKMAAV (54)
